The record followed here is article PMC12694930, “An allantoin-inducible glyoxylate utilization pathway in Pseudomonas aeruginosa” (Microbiology, 2025).

Series [1] has as its target T1, Gcl (Pseudomonas aeruginosa, UniProt Q9I3L0).
T1 construct: full-length ORF in pET-19m, N-terminal His6 tag cut with TEV protease, expressed in E. coli Rosetta, Ni-NTA
T1 sequence (Q9I3L0 1-591): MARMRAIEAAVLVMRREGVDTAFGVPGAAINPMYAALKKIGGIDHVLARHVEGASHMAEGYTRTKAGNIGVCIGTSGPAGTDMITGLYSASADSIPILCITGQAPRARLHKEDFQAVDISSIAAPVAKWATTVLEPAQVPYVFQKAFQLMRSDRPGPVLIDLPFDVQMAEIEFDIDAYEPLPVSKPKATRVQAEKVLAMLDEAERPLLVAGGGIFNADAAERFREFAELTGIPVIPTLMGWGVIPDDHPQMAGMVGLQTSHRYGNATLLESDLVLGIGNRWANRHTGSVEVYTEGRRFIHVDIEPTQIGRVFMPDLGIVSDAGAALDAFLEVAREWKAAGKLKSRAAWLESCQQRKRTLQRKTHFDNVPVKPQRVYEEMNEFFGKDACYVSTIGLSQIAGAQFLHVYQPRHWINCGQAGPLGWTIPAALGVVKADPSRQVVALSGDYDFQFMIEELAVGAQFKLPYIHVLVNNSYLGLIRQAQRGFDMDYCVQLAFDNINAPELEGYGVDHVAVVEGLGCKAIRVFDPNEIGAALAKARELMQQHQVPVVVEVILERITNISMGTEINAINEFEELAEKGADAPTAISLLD
The series is described as follows: GlxR-coupled NADH oxidation with added FAD; yellow protein ([…] nm). It counts as biochemical. To be noted: 100 µM FAD roughly doubled activity; 37 °C.

A further series deals with T2, Hyi (Pseudomonas aeruginosa, UniProt Q9I3L1).
T2 construct: gene PA1501; full-length ORF in pET-19m, N-terminal His6 tag (cleavage clearly told only for Gcl), expressed in E. coli Rosetta, Ni-NTA; dimer in solution
T2 sequence (Q9I3L1 1-260): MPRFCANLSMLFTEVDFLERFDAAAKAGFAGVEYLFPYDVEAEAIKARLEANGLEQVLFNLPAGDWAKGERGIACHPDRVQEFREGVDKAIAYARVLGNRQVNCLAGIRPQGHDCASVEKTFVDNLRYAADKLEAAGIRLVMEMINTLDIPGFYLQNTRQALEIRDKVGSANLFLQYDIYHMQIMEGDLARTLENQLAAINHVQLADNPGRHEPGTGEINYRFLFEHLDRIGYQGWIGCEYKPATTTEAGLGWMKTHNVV
The series is described as follows: 1H-NMR, disappearance of hydroxypyruvate peaks. Conditions: 50 mM sodium phosphate in D2O, 1 mM MgCl2, pD 7.0; 37 °C; likely isomerization with H/D exchange, product peak not seen. Format: biochemical.

Series [2] addresses T1, Gcl. Put plainly: 1H-NMR, decrease of hydrated glyoxylate peak. It counts as biochemical. To be noted: 50 mM sodium phosphate in D2O, 1 mM MgCl2, pD 7.0; 37 °C; 22 h; no Hyi.
Series [3] addresses Hyi (PA1501), putative hydroxypyruvate isomerase from Pseudomonas aeruginosa (P. aeruginosa). The series is described as follows: AUC; analytical ultracentrifugation, sedimentation velocity (AUC-SV), of each purified protein alone.
Substrate in series [4]: O=C(O)C(=O)CO
The series is described as follows: purified protein. It counts as biochemical, Pseudomonas aeruginosa. To be noted: 0.2 mM NADH, 20 mM MOPS, pH 7.5, 37 °C, h = 1.6 ± 0.2, some TSA may be present by tautomerization, no Hyi.

Substrate in series [5]: O=CC(O)C(=O)O
Put plainly: purified protein. To be noted: TSA made in situ by Gcl from 0-10 mM glyoxylate (concentration varied was glyoxylate, so apparent), 0.2 mM NADH, 20 mM MOPS, 37 °C, no Hyi. Format: biochemical, Pseudomonas aeruginosa.

Series [6] deals with the molecule itself. Put plainly: AUC; analytical ultracentrifugation, sedimentation velocity (AUC-SV), of each purified protein alone.

Turning to `Cc1cc2nc3c(=O)[nH]c(=O)nc-3n(C[C@H](O)[C@H](O)[C@H](O)COP(=O)(O)OP(=O)(O)OC[C@H]3O[C@@H](n4cnc5c(N)ncnc54)[C@H](O)[C@@H]3O)c2cc1C` [flavin adenine dinucleotide], the “GlxR-coupled NADH oxidation with added FAD; yellow protein (445 nm)” value on Gcl [1] is listed as “FAD supplementation roughly doubled the enzyme activity”. Consider `O=C(O)C(=O)CO` [hydroxypyruvate], for which the “1H-NMR, disappearance of hydroxypyruvate peaks” value at Hyi is “In the presence of Hyi, both hydroxypyruvate peaks had lessened in intensity”. Turning to `O=CC(=O)O` [glyoxylate], the “1H-NMR, decrease of hydrated glyoxylate peak” value on Gcl [2] is given as “In the presence of Gcl, this hydrated glyoxylate peak slowly diminished in intensity”. What is called stoichiometry N is the number of molecules, sites or subunits per partner or assembly. For the molecule “Hyi (PA1501), putative hydroxypyruvate isomerase from Pseudomonas aeruginosa (enzyme)”, in series [3], the stoichiometry N amounted to 2.

B1: GlxR (PA1500), tartronate semialdehyde (TSA) reductase from Pseudomonas aeruginosa (enzyme, P. aeruginosa, UniProt Q9I3L2 1-296, looked up)
chain: MAKIGFIGTGIMGKPMAQNLQKAGHSLFLSTHHDAAPADLLEAGAIALANPKEVAQEAEFIIVMVPDTPQVEDVLFRKDGIAEGAGPNKVVIDMSSISPTATKGFAEKIKATGAQYLDAPVSGGEVGAKAATLSIMVGGCPNTFERALPLFQAMGKNITRVGGNGDGQTAKVANQIIVALNIQAVAEALLFAARNGADPAKVREALMGGFASSRILEVHGERMVKGTFDPGFRISLHQKDLNLALAGARELNLNLPNTANAQQVFSTCAAIGGSNWDHSALIKGLEHMANFSIRDE
notes: GlxR, tartronate semialdehyde reductase, ORF PA1500 of P. aeruginosa strain PAO1; the ORF was tagged and over-expressed; The methods state TEV cleavage of the His6 tag 'For Gcl' but then speak of 'each of the over-expressed proteins'; whether the tag of GlxR was removed is not clear; For crystallisation the elution and dialysis buffers differed (PBS based); also called apo-GlxR; GlxRα; source: E. …
Broadly, the kcat is the number of substrate molecules converted per active site and unit of time at saturation. What is called Km is the substrate concentration at which the rate is half of its maximum. Turning to B1, in the series “purified protein [4]”, the K0.5 is 16.7 mM and the kcat was 33.5 s⁻¹. Also, in “purified protein [5]”, the Km came out at 800 µM and the kcat was found to be 34.7 s⁻¹. Also, in series [6], the “stoichiometry N” value worked out at 4.
